Measurements taken from the domain aggregation screens of Martell et al. (2025).

Experiment: soluble fraction after stress (log2 fold change); higher = more stays soluble; pooled small domains, quantitative proteomics
Settings: stress: 75 degC
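Note: 20 min heating vs room temperature control held 20 min.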

Row | Sequence | soluble fraction (log2)
1 | HMQKMPEMQILPNGKVKLPDFSGINMRKAAELLQYGKLRLQPYGSGTAYQQKPAAGTEVDEGTVVEIWF | -0.83
2 | HMQKNFYQILGVDSKASPATINAAYERAKSRVIQSGLEDPDTMALLRDAWETLADPGDRAAYDESLAT | 0.0744
3 | HMQKPELLAPAGSLEKAKTAFKYGADAVYMGTSNLSLRSRVTVDDDELIKTIEYAHSINKKVYAALNIYAR | 0.249
4 | HMQKPWFYESSGQRKGGFSEQEMVGLITDGEITHGAIVWRNGLSDWTKLEQTELAAHLDKTA | -0.11
5 | HMQKRDQKKRANMLDSLKVGTRIVTIGGIFGEIAKIKDDRIRIKVAEDVEIWIRRAAVGTVIT | -1.94
6 | HMQKTPFEIMTIYKDQILEMLGKDLTATEISIVLKKKGEKVHPREIRKFQLQHYEEVQDMRKKWRE | -1.17
7 | HMQKWILVNKQGRLSGILDHRAFNTRESATAWFQRTSDISGGTIKIDDYYYVLKNEEYKLLKE | -3.09
8 | HMQKYEDIINVTRERLQNKFYSQTVIPTDDDIYIWLDKVAILEEIKLSKEDRQMLFNLLKKEAT | -1.35
9 | HMQLGQMIVKLRKEQGLTQETFAKKFNVTRQTVSNWENEKSYPDLHTLVKISDEFHLSLDILLK | -3.14
10 | HMQLGSILAYKFPQFGGIDGAWQVRDDSNGTGPYIAFWDAKTIGRGMPTEDELTAWAQEYEA | -0.206
11 | HMQLPTPEDLKKRRNELGLTQSDLAKRAGVSQPLIARIESGDVDPRLSTVRKILDAFEEVEKEQQ | 0.0518
12 | HMQLSASQQQILNHAAVNTDGKLVWFPETLKGGARKKVLDSLFSRALITTDGTHWFVAAEGYEALGIP | -1.06
13 | HMQLTDLSALEAIIKEVLAANPKSVEDYKSGKEKAFGSLVGQAMKATKGKANPETVNSLLRKNLN | 0.729
14 | HMQLTDSDFTRLYTYVKNSYGIDLSKKKQLISSRLTNMLIQQGYRDFTQYTDEIISGKNPEMVSAMLNRLT | -1.33
15 | HMQLTPAQHAILAKAIHSSDGKIEWFPDNVKGGARKKVLEGMFNRALITPDGEGWRIAAEGYDALGMPRP | -0.097
16 | HMQLVGSSAAVLIPAPAGGLGKIRLEFRGQTIDLIAKATDGGALIEGGAVTIVDVRDGQADVSV | -0.939
17 | HMQMMDATLKIPPSMGKLRGTLYELNSVTSEDVDENGQLALHVRLSSVDWQRLKKRFDSNLDELIVQKN | -0.219
18 | HMQMPLTMATMGEVNKIVKVGGNEETRRFLANLGFVAGAEVVVLSKIGGNVIVNVKDSRVAVNEDMARHIM | -1.19
19 | HMQMSDTAAIGKIVDEVFAENPAALEDYAKGKTNVVDWLTGQVMKKSRGQANPGIASELVQKRLADF | 0.0922
20 | HMQMSDTGAIEAMVKEALDENPQAIEDFKNGKGKALGFLMGQVMKKSKGQANGGIVNKLIKEELQKRIG | 0.292

Row | Sequence | soluble fraction (log2)
21 | HMQMTKSEFLDALRRALNGNMAAASVDDNIRFYDSYFYTEETKGRSEAEILSELGDPRILARTLIDAAD | -0.0328
22 | HMQNEIQQLAIDLIARAHKSGASDIHIVDTGTYTRIKFRVLGLLREDSQMEAETGRQMISTIYGILG | -0.0698
23 | HMQNEKLSYFVTETIVTERADLFITKKFPQFSRSQIQKLINSGNITINSNPIKASTEIINKDNIEITIPV | -2.15
24 | HMQNESGLFTMSDLWEAGLMGSENASRKRAAVGAFLGIGFGNGKQFLKRLNHFGVTKEEWESALEQLGE | -1.18
25 | HMQNEVMPYSTFLSEVNSGNVTKVKIDHEQLTGTLKSGKQFTTYILDAATLPSIVAEKGVEVEVVPP | 0.506
26 | HMQNGNYVVQRQDSLWSIAARISGQTHQPIGEVMNHIKALNEHAFVGGNVNRLRTGTNLNLG | -0.224
27 | HMQNKRQEQLLALLAERRDYMTSRQLAEILQVSDRTIRSDVEAINRRSSPPPIESNVRQGYRLNPEA | -0.142
28 | HMQNNIEFTVLEEDAQKRLDVLLSEKTALSRSASASLIEEGGVLVNGRKEPKKYKPVRGEIITAILPE | 0.504
29 | HMQNNTIAFSKFLQEVDNGRVVQVEIQGNNINGILSDGSKFNTYSPNYPALVEKLSEKNVNIVASPV | 0.0941
30 | HMQNPDHLLALAAAAQAAIELGRPDEAEAYYRHLVEVYGVEMASQKPEYLDHSGITNDLRNVAEGFLVG | -1.06
31 | HMQNRIVNTTQGLAADKRGLLVADETGHTTRPGIFASGDVVNGARTVVEAVAHSKIVAESMHQYMQ | 0.654
32 | HMQNSLKAFRVKRGLTTSALSRLTNGEFSTSRISNYETGVRALTIDAAKKLAPHLGASPAQLLNL | -0.694
33 | HMQNSPVFAASDIEDIRVGMTVEHQRFGQGRVMSIEGNGPNKKTTVLFEGIGEKQLLLQYAKLKIV | -0.664
34 | HMQNYLLFEEAKNIVNTLNLTNEKDWSEFIKKDFTYKNQIPIFPNQYYKHKGWVDWNDWLGINK | -1.35
35 | HMQNYTTIIGVIELRLNDISYDNVRKRYHIGRSGITLIMDRYRDSGLSLEDLKQMTPEKVVDLFYPR | -2.55
36 | HMQPAALEAQVIKLVRLHAPIKARQLATILANEFGQHVDRSTVNSLLYQLRAQGKVAQNAAYQWSLT | -2.01
37 | HMQPEKELAPLIGQRVSVRLHDGDGGYRDLLGELESPDSIRKKNGEIAFFDPAKIAALRVVV | 0.0667
38 | HMQPGDRVDALIVGVSGEHVFLDVGGKSEGVMAAAELRNEAGELSAAEGDRVQVYLLSNRNGELIFTA | 0.205
39 | HMQPHLSADEEHLLKILGSDTMHIDALVKRSTLETSNALAALAFLEMKGLVKNIGNMHYIRTYR | -0.552
